Earlier results in publication PMC3903589.

Columns and labels:
NCAM = NCAM (UniProt P13591); test: SPR
CEACAM1 = CEACAM1 (UniProt P13688); test: SPR

NCAM, sequence (P13591 20-718): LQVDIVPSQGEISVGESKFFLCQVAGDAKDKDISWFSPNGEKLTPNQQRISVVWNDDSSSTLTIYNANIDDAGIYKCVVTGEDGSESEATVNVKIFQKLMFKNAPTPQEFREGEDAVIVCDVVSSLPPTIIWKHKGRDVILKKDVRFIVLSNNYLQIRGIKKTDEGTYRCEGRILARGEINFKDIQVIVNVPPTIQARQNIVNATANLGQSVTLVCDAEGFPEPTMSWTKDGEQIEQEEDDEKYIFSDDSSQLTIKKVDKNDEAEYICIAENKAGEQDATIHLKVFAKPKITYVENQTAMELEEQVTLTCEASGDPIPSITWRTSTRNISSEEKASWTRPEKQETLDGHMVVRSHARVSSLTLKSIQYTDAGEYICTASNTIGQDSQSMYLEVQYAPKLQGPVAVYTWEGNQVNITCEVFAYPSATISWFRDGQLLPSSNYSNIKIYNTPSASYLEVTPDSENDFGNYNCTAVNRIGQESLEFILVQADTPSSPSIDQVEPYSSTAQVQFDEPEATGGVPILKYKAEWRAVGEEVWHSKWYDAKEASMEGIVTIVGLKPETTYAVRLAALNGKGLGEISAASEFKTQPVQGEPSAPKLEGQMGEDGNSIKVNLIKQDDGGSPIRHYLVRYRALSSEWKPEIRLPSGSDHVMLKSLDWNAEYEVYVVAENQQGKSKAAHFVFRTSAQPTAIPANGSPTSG
CEACAM1, sequence (P13688 35-428): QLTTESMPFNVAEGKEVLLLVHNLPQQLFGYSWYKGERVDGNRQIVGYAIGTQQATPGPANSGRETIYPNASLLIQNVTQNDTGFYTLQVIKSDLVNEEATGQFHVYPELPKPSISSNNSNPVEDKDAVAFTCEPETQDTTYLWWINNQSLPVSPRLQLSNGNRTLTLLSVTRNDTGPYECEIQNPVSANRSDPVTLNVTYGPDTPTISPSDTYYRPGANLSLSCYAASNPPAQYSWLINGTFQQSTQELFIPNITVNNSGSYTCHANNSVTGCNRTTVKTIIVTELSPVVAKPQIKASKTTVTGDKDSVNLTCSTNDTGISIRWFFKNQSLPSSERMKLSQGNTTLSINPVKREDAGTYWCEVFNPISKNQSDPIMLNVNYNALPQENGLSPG

| Substance | Kd (NCAM) | Kd (CEACAM1) |
| --- | --- | --- |
| NCAM (from UniProt P13591) | 0.025 µM |  |
| CEACAM1 (from UniProt P13688) |  | 7.65 µM |
